# Non-standard residues stand in square brackets, D forms with d. Phe(4-guanidino) = N=C(N)Nc1ccc(C[C@H](N)C(=O)O)cc1
# B1: HILR-030 (cyclo-[Pro-Arg-Gly-Pro-Arg-Pro-Val-Trp-Trp-Gpa-Gpa-Trp-Trp-Gpa-Gpa-Trp-Trp]) (peptide)
# peptide: cyclo(PRGPRPVWW[Phe(4-guanidino)][Phe(4-guanidino)]WW[Phe(4-guanidino)][Phe(4-guanidino)]WW)
# SMILES: CC(C)[C@@H]1NC(=O)[C@@H]2CCCN2C(=O)[C@H](CCCNC(=N)N)NC(=O)[C@@H]2CCCN2C(=O)CNC(=O)[C@H](CCCNC(=N)N)NC(=O)[C@@H]2CCCN2C(=O)[C@H](Cc2c[nH]c3ccccc23)NC(=O)[C@H](Cc2c[nH]c3ccccc23)NC(=O)[C@H](Cc2ccc(NC(=N)N)cc2)NC(=O)[C@H](Cc2ccc(NC(=N)N)cc2)NC(=O)[C@H](Cc2c[nH]c3ccccc23)NC(=O)[C@H](Cc2c[nH]c3ccccc23)NC(=O)[C@H](Cc2ccc(NC(=N)N)cc2)NC(=O)[C@H](Cc2ccc(NC(=N)N)cc2)NC(=O)[C@H](Cc2c[nH]c3ccccc23)NC(=O)[C@H](Cc2c[nH]c3ccccc23)NC1=O
# Target: lactate dehydrogenase (LDH) in lysates of NCI-H460 cells (human, UniProt P00338 2-332)
# Experiment: cell-based or functional assay
binder,measurement,value
B1,IC50 of LDH activity (LDH activity kit on lysates of treated NCI-H460 cells),22 µM
PRGPRPVWWRRWWRRWW (head-to-tail cyclic peptide) [HILR-025 (cyclo-[Pro-Arg-Gly-Pro-Arg-Pro-Val-Trp-Trp-Arg-Arg-Trp-Trp-Arg-Arg-Trp-Trp])],IC50 of LDH activity (LDH activity kit on lysates of treated NCI-H460 cells),16 µM

# Reference: patent US20170313746A1 (published 2017)
